Laboratory results: patent publication US9315837B2, “Desaturases of a green microalga and uses thereof” (Ben Gurion University of the Negev Research and Development …, priority 2010, dated 2016)
Values joined by “and” are separate entries in the source; they are usually repeats but may differ in a detail not shown here. Equal values may be shown once. Marks after values point to notes of the source that are not given here.

How the values were obtained:
[1] = tested on: 20:3ω6 in lipid classes of S. cerevisiae; experiment: Fatty acid analysis of individual lipid classes of S. cerevisiae expressing the PiDes5 ORF, fed with 20:3ω6; assay type: cell-based, Saccharomyces cerevisiae; details: for % conversion: 24 h after feeding 20:3ω6
From the text: (§1) The open reading frames (ORFs) encoding for the […], Δ6, and Δ5 desaturases were amplified using PfuUltra II fusion HS DNA polymerase (Stratagene, La Jolla, Calif., USA) with the respective primer pairs (Table 1). The forward primers contained a restriction site (underlined) and a yeast translation consensus (double underlined) followed by ATG. The reverse primers contained a restriction site (underlined) and a stop codon (double underlined). Following restriction and ligation to the pYES2 vector (Invitrogen, Carlsbad, Calif., USA), the constructs were used to transform S. cerevisiae strain W303 by the PEG/lithium acetate method [R. D. Gietz, R. A. Woods, Yeast Transformation by the LiAc/SS Carrier DNA/PEG Method, in: W. Xiao (Ed.), Yeast Protocols, Second Edition, vol. 313, Methods in Molecular Biology, Humana Press Inc, Totowa, N. J., 2006, pp. 107-120]. The yeast cells harboring the empty pYES2 vector were used as control. Transformants were selected by uracil prototrophy on yeast synthetic medium (YSM) lacking uracil (Invitrogen, Carlsbad, Calif., USA). For functional expression, a minimal selection medium containing 2% (w/v) raffinose was inoculated with the pYPiDesΔ12, pYPiDesΔ6 or pYPiDesΔ5 transformants and grown at 27° C. for 24 h in a water bath shaker. Five ml of sterile YSM, containing 1% (w/v) Tergitol-40 and 250 µM of the appropriate fatty acid substrate was inoculated with raffinose-grown cultures to obtain an OD of 0.2 at 600 nm. Expression was induced by adding galactose to a final concentration of 2% (w/v) and cultures were further grown at 27° C. for 48 h. Cells were harvested by centrifugation, washed twice with 0.1% NaHCO^3, freeze-dried and used for fatty acid analysis.
(§2) Fatty acid methyl esters (FAMES) were obtained by transmethylation of the freeze-dried P. incisa or yeast biomass, with dry methanol containing 2% H2SO4 (v/v) and heating at 80° C. for 1.5 h while stirring under an argon atmosphere. Gas chromatographic analysis of FAMES was performed on a Thermo Ultra Gas chromatograph (Thermo Scientific, Italy) equipped with PTV injector, FID detector and a fused silica capillary column (30 m×0.32 mm; ZB WAXplus, Phenomenex). FAMES were identified by co-chromatography with authentic standards (Sigma Chemical Co., St. Louis, Mo.; Larodan Fine Chemicals, Malmo, Sweden) and FAME of fish oil (Larodan Fine Chemicals). Each sample was analyzed in duplicates of three independent experiments. The structures of fatty acids were confirmed by GC-MS of their pyrrolidine derivatives [W. W. Christie, The analysis of fatty acids in: W. W. Christie (Ed.), Lipid analysis Isolation, separation, identification and structural analysis of lipids, vol. 15, Third edition, The Oily Press, Bridgewater, England, 2003, pp. 205-225] on HP 5890 equipped with a mass selective detector (HP 5971A) utilizing a HP-5 capillary column and a linear temperature gradient from 120 to 300° C.
The biomass of S. cerevisiae was heated with isopropanol at 80° C. for 10 min and lipids were extracted by the method of Bligh-Dyer (1959) [E. G. Bligh, W. J. Dyer, A rapid method of total lipid extraction and purification, Can. J. Biochem. Physiol. 37 (1959) 911-917]. Total lipid extract was separated into neutral and polar lipids by silica Bond-Elute cartridges (Varian, Calif.) using 1% of ethanol in chloroform (v/v) and methanol to elute neutral and polar lipids, respectively [Z. Cohen, S. Didi, Y. M. Heimer, Overproduction of γ-linolenic and eicosapentaenoic acids by algae, Plant Physiol. 98 (1992) 569-572]. […]

[2] = tested on: supplied fatty acids in S. cerevisiae strain W303; experiment: Functional expression of PiDes12, PiDes6 and PiDes5 in S. cerevisiae fed with fatty acid substrates, GC of FAMEs; assay type: cell-based, Saccharomyces cerevisiae; details: for substrate conversion (ARA emergence after addition of DGLA): PiDes5 transformant, total fatty acids
From the text: as §1, §2
The functional activities of the proteins encoded by PiDes12, PiDes6 and PiDes5 were examined by heterologous expression in S. cerevisiae. To this aim, the pYES2 constructs pYPiDes12, pYPiDes6 and pYPiDes5 containing the ORFs for PiDes12, PiDes6, and PiDes5, respectively, were transformed into S. cerevisiae. […] An attempt to improve the expression of the recombinant protein and to increase the activity by the modification of yeast translation consensus was not successful.
PiDes6 and PiDes5 expressions were induced in the presence of the main ω6 substrates for Δ6 or Δ5 fatty acid desaturases, 18:2ω6 and 20:3ω6, respectively. New peaks corresponding to 18:3ω6 and 20:4ω6, respectively, were detected, confirming the predicted function of PiDes6 and PiDes5. […] PiDes6 was not active on […] either, whereas PiDes5 desaturated it to the non-methylene-interrupted 20:4^Δ5,11,14,17. PiDes5 converted 20:4ω3 into the respective Δ5 product, 20:5ω3 (EPA) as well as the added 18:1 into the non-methylene-interrupted 18:2^Δ5,9 (FIG. 3). […]

[3] = substrate 18:1^Δ9, PiDesΔ5 product 18:2^Δ5,9, product/(substrate + product)
[4] = substrate 18:3^Δ9,12,15, PiDesΔ6 product 18:4^Δ6,9,12,15, PiDesΔ5 product 18:4^Δ5,9,12,15 (tentative identification)
[5] = substrate 20:3^Δ11,14,17, PiDesΔ5 product 20:4^Δ5,11,14,17

B1: PiDes5: P. incisa Δ5 desaturase, predicted protein of 482 amino acids, SEQ ID NO: 3 (protein, listed as Parietochloris incisa)
chain: MMAVTEGAGGVTAEVGLHKRSSQPRPAAPRSKLFTLDEVAKHDSPTDCWVVIRRRVYDVTAWVPQHPGGNLIFVKAGRDCTQLFDSYHPLSARAVLDKFYIGEVDVRPGDEQFLVAFEEDTEEGQFYTVLKKRVEKYFRENKLNPRATGAMYAKSLTILAGLALSFYGTFFAFSSAPASLLSAVLLGICMAEVGVSIMHDANHGAFARNTWASHALGATLDIVGASSFMWRQQHVVGHHAYTNVDGQDPDLRVKDPDVRRVTKFQPQQSYQAYQHIYLAFLYGLLAIKSVLLDDFMALSSGAIGSVKVAKLTPGEKLVFWGGKALWLGYFVLLPVVKSRHSWPLLAACWLLSEFVTGWMLAFMFQVAHVTSDVSYLEADKTGKVPRGWAAAQAATTADFAHGSWFWTQISGGLNYQVVHHLFPGICHLHYPAIAPIVLDTCKEFNVPYHVYPTFVRALAAHFKHLKDMGAPTAIPSLATVG
20:4ω6, fatty acid composition ([1]; lipid class DAG): 2.0 % of total fatty acids
% conversion ([1]; lipid class DAG): 24.0%
20:4ω6, fatty acid composition ([1]; lipid class FFA): 3.6 % of total fatty acids
% conversion ([1]; lipid class FFA): 17.2%
20:4ω6, fatty acid composition ([1]; lipid class PC): 3.6 % of total fatty acids
% conversion ([1]; lipid class PC): 24.2%
20:4ω6, fatty acid composition ([1]; lipid class PE): 1.6 % of total fatty acids
% conversion ([1]; lipid class PE): 24.6%
20:4ω6, fatty acid composition ([1]; lipid class PI + PS): 1.1 % of total fatty acids
% conversion ([1]; lipid class PI + PS): 18.1%
20:4ω6, fatty acid composition ([1]; lipid class SE): 1.1 % of total fatty acids
% conversion ([1]; lipid class SE): 8.4%
20:4ω6, fatty acid composition ([1]; lipid class TAG): 2.0 % of total fatty acids
% conversion ([1]; lipid class TAG): 9.3%
20:4ω6 share by lipid class (% of total lipid) ([1]; share found in lipid class DAG): 1.4 % TL
20:4ω6 share by lipid class (% of total lipid) ([1]; share found in lipid class FFA): 9.1 % TL
20:4ω6 share by lipid class (% of total lipid) ([1]; share found in lipid class PC): 25.7 % TL
20:4ω6 share by lipid class (% of total lipid) ([1]; share found in lipid class PE): 2.3 % TL
20:4ω6 share by lipid class (% of total lipid) ([1]; share found in lipid class PI + PS): 4.4 % TL
20:4ω6 share by lipid class (% of total lipid) ([1]; share found in lipid class SE): 1.8 % TL
20:4ω6 share by lipid class (% of total lipid) ([1]; share found in lipid class TAG): 55.2 % TL
substrate conversion (ARA emergence after addition of DGLA) ([2]; after 3 h): 10.9% and 10.6%
substrate conversion (ARA emergence after addition of DGLA) ([2]; after 24 h): 15.1%
Desaturase product and conversion (%) of supplied fatty acid [2, 3]: 18:2^Δ5,9 (4.2) %
Desaturase product and conversion (%) of supplied fatty acid [2, 4]: 18:4^Δ5,9,12,15** (1.4) %
Desaturase product and conversion (%) of supplied fatty acid ([2]; substrate 20:3^Δ8,11,14, PiDesΔ5 product 20:4^Δ5,8,11,14): 20:4^Δ5,8,11,14 (16.4) %
Desaturase product and conversion (%) of supplied fatty acid [2, 5]: 20:4^Δ5,11,14,17 (10.0) %
Desaturase product and conversion (%) of supplied fatty acid ([2]; substrate 20:4^Δ8,11,14,17, PiDesΔ5 product 20:5^Δ5,8,11,14,17): 20:5^Δ5,8,11,14,17 (17.1) %

B2: PiDes6: P. incisa Δ6 desaturase, predicted protein of 481 amino acids, SEQ ID NO: 2 (protein, listed as Parietochloris incisa)
chain: MCQGQAVQGLRRRSSFLKLTGDAIKGAVAAISDFNKLPAATPVFARRSLSDSALQQRDGPRSKQQVTLEELAQHNTPEDCWLVIKNKVYDVSGWGPQHPGGHVIYTYAGKDATDVFACFHAQTTWSQLRPFCIGDIVEEEPMPALLKDFRELRTRLQQQGLFRSNKLYYLYKVASTLSLLAAALAVLITQRDSWLGLVGGAFLLGLFWQQSGWLAHDFLHHQVFTDRQWNNVMGYFLGNVCQGFSTDWWKSKHNVHHAVPNELDSDSKAARDPDIDTLPLLAWSSEMLDSMSNSGARLFVRMQHYFFFPILLFARMSWCQQSVAHASDLSRTSKAGVYELAYLALHYAWFLGAAFSVLPPLKAVVFALLSQMFSGFLLSIVFVQSHNGMEVYSDTKDFVTAQIVSTRDILSNVWNDWFTGGLNYQIEHHLFPTLPRHNLGKVQKSIMELCHKHGLVYENCGMATGTYRVLQRLANVAAEA
Desaturase product and conversion (%) of supplied fatty acid [2, 3]: neither active
Desaturase product and conversion (%) of supplied fatty acid ([2]; substrate 18:2^Δ9,12, PiDesΔ6 product printed 18:2^Δ6,9,12, product/(substrate + product)): 18:2^Δ6,9,12 (5.1) %
Desaturase product and conversion (%) of supplied fatty acid [2, 4]: 18:4^Δ6,9,12,15 (4.5) %
Desaturase product and conversion (%) of supplied fatty acid [2, 5]: not active

B3: PiDes12: P. incisa Δ12 desaturase, predicted protein of 380 amino acids, SEQ ID NO: 1 (protein, listed as Parietochloris incisa)
chain: MGKGGCYQAGPPSAKKWESRVPTAKPEFTIGTLRKAIPVHCFERSIPRSFAYLAADLAAIAVMYYLSTFIDHPAVPRVLAWGLLWPAYWYFQGAVATGVWVIAHECGHQAFSPYQWLNDAVGLVLHSCLLVPYYSWKHSHRRHHSNTGSTTKDEVFVPREAAMVESDFSLMQTAPARFLVIFVSLTAGWPAYLFANASGRKYGKWANHFDPYSPIFTKRERSEIVVSDVALTVVIAGLYSLGKAFGWAWLVKEYVIPYLIVNMWLVMITLLQHTHPELPHYADKEWDWLRGALATCDRSYGGMPDHLHHHIADTHVAHHLFSTMPHYHAQEATEAIKPILGKYYKQDKRNVWAALWEDFSLCRYVAPDTAGSGILWFRA
desaturation activity ([2]; heterologous expression in yeast): very low desaturation activity
peak corresponding to 18:2 ([2]; yeast transformed with pYPiDes12): 0.3 % of TFA
